From PMC10541312 (The Journal of Experimental Medicine, 2023) come the findings set out here.

In this experiment the target is T1, CD123 S59Y ECD (amino acids 19–305), soluble protein (human, UniProt P26951 19-305, S59Y, biotinylated (Biotinylation kit Type B) in the IL-3 BLI only).
T1 construct: human CD123 extracellular domain (ECD; amino acids 19–305); source: produced and purified by Icosagen
T1 sequence (looked up): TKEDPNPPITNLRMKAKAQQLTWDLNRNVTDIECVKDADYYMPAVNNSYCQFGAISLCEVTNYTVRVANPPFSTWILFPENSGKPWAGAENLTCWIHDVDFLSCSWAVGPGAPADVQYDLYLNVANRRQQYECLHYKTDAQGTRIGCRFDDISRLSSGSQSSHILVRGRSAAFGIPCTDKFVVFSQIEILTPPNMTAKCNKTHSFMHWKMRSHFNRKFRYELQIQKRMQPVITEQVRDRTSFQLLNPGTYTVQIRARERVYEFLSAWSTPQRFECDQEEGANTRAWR
Put plainly: BLI; biotinylated CD123 ECD wt and variants captured on streptavidin biosensors; IL-3 as analyte, 500 to 7.8 nM in PBS pH7.4; association 300 s; steady-state analysis. Conditions: both partners purified.

B1: IL-3 (ligand, human, UniProt P08700 20-152, looked up)
chain: APMTQTTPLKTSWVNCSNMIDEIITHLKQPPLPLLDFNNLNGEDQDILMENNLRRPNLEAFNRAVKSLQNASAIESILKNLLPCLPLATAAPTRHPIHIKDGDWNEFRRKLTFYLKTLENAQAQQTTLSLAIF
notes: human interleukin-3, recombinant, Sino Biological PN 11858-H08H; also called interleukin-3; human IL-3; source: bought: Sino Biological (PN 11858-H08H)
For B1, the binding result is “binds”.
